Laboratory results from patent US20130130989A1 (AGENCY FOR SCIENCE TECHNOLOGY AND RESEARCH, published 2013).
Square brackets hold non-standard residues; d marks the D form. Ends that are not written are not given here. αMeF = C[C@](N)(Cc1ccccc1)C(=O)O; Ac5c = NC1(C(=O)O)CCCC1; Aib = CC(C)(N)C(=O)O

What was measured:
[1] = target: eukaryotic translation initiation factor 4E (eIF4E), full length human (human) (UniProt P06730); assay: Kd estimated from FTS thermal shift
[2] = target: eukaryotic translation initiation factor 4E (eIF4E), full length human (human) (UniProt P06730); assay: fluorescence-based thermal shift assay (FTS), Sypro Red, 10 µM eIF4E, 100 µM peptide
[3] = target: T1, eukaryotic translation initiation factor 4E (eIF4E), full length human (human, UniProt P06730 2-217); assay: Kd estimated from the FTS thermal shift of eIF4E (10 µM eIF4E, 200 µM peptide)
T1 construct: mature; read as P06730; also called eIF4E protein
T1 sequence (P06730 2-217): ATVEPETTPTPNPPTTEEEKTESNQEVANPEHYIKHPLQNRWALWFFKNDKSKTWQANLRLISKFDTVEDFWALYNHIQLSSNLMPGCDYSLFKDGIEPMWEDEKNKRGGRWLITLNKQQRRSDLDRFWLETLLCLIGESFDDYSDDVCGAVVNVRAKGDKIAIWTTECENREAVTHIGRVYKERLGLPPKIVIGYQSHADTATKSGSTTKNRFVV

[4] = target: T1, eukaryotic translation initiation …; assay: fluorescence-based thermal shift assay (FTS), Sypro Red, 10 µM eIF4E, 200 µM peptide (*)
Description: A fluorescence based thermal shift assay was used to screen and rank the rationally designed eIF4E binding derivative peptides. The fluorescent dye Sypro Red was used to monitor thermal denaturation of eIF4E. Binding of the dye molecule to eIF4E, as it unfolds due to thermal denaturation, results in a sharp increase in the fluorescence intensity. The midpoint of this transition is termed the Tₘ. The thermal shift assay was conducted in the iCycler Real Time Detection System (Bio-Rad, Hercules, Calif.). The system contains a heating/cooling device for accurate temperature control and a charge-coupled device (CCD) detector for simultaneous imaging of the fluorescence changes in the wells of the microplate.

[5] = target: T1, eukaryotic translation initiation …; assay: ITC
[6] = target: T1, eukaryotic translation initiation …; assay: FTS thermal shift assay
[7] = target: T1, eukaryotic translation initiation …; assay: ITC, peptide titrated into eIF4E, 20° C.
Description: (§1) ITC experiments were conducted in a VP-ITC Unit (MicroCal, Northampton, Mass.). […] The buffer used for dialysis of the protein was used to dilute the peptides to their final working concentration. The protein buffer solution was matched to the peptide solution by the addition of DMSO in the case of the non TAT fused peptides. The titration experiments were performed at 20° C. with an initial 2 μl injection with duration of 4 s, fooled by 28 10 μl injections with a duration of 7.1 s. The spacing between each injection was 150 s. The stirring speed during the titration was 290 rpm. Data was analyzed using Microcal Origin software by fitting to a single-site binding model. Correction for the enthalpy of ligand dilution was carried out by subtracting a linear fit from the last three data points of the titration, after the interaction had reached saturation.

[8] = target: T1, eukaryotic translation initiation …; assay: ITC, apparent Kd against the template peptide
Description: as §1

[9] = target: T1, eukaryotic translation initiation …; assay: Kd estimated from the FTS thermal shift of eIF4E (10 µM eIF4E, 100 µM peptide)
Description: A fluorescence based thermal shift assay was used to screen and rank the rationally designed eIF4E binding derivative peptides. The fluorescent dye Sypro Red was used to monitor thermal denaturation of eIF4E. Binding of the dye molecule to eIF4E, as it unfolds due to thermal denaturation, results in a sharp increase in the fluorescence intensity. The midpoint of this transition is termed the Tₘ. The thermal shift assay was conducted in the iCycler Real Time Detection System (Bio-Rad, Hercules, Calif.).

[10] = target: T1, eukaryotic translation initiation …; assay: fluorescence-based thermal shift assay (FTS), Sypro Red, 10 µM eIF4E, 100 µM peptide
Description: The fluorescent dye Sypro Red was used to monitor thermal denaturation of eIF4E. Binding of the dye molecule to eIF4E, as it unfolds due to thermal denaturation, results in a sharp increase in the fluorescence intensity. The midpoint of this transition is termed the Tₘ. The thermal shift assay was conducted in the iCycler Real Time Detection System (Bio-Rad, Hercules, Calif.). The system contains a heating/cooling device for accurate temperature control and a charge-coupled device (CCD) detector for simultaneous imaging of the fluorescence changes in the wells of the microplate. […] The final protein concentration was 10 μM. Protein samples were incubated with derivative peptides at a concentration of a 100 μM. The plate was heated from 20 to 90° C. with a heating rate of 1° C./min.

[11] = target: T1, eukaryotic translation initiation …; assay: ITC, peptide titrated into eIF4E, 20 °C, PBS, one-to-one binding model; entropy calculated; parameters: unit not given here
[12] = target: T1, eukaryotic translation initiation …; assay: ITC, peptide titrated into eIF4E, 20 °C, PBS, one-to-one binding model
Description: as §1

[13] = target: T1, eukaryotic translation initiation …; assay: ITC, apparent Kd
[14] = target: T1, eukaryotic translation initiation …; assay: ITC, peptide titrated into eIF4E, 20 °C, PBS, one-to-one binding model; parameters: unit not given here
[15] = target: T1, eukaryotic translation initiation …; assay: ITC, peptide titrated into eIF4E, 20 °C, PBS, one-to-one binding model; entropy calculated
[16] = target: T1, eukaryotic translation initiation …; assay: fluorescence-based thermal stability assay (FTS)

eukaryotic translation initiation factor 4E (eIF4E), full length human (human), sequence (P06730 2-217): as above

Molecule	Kd [9]	ΔT (°C) [10]	other results
Tr2_AIB3_A5C peptide (YDREFLL5FQF)	–	–	Kd [1]: 1450 nM; ΔT (°C) [2]: 6.6 °C
YDREFLLGFQ-NH2 [Tr3]	–	–	Kd [3]: 35200 nM; ΔT (°C) [4]: 2.25 °C
KKRYDRE[αMeF]LL[Ac5c]FQF (not fully specified (C-terminus), also called modified 14mer eIF4G1_me5 peptide; helically stabilized peptide) [eIF4G1_me5 peptide (KKRYDRE*LL5FQF)]	7 nM	14.6 °C	binding enthalpy [5]: -14.4 kcal/mol; ΔΔG against the template peptide (eIF4G1) [5]: ~1.6 kcal/mol; fold increase in thermal shift over the original 14-mer eIF4G1 peptide [6]: 1.7 fold; thermal shift in the melting temperature of eIF4E [6]: ~14 ° C.; Kd [7]: 9.43 nM; fold more potent than the template peptide (eIF4G1) [8]: ~15.7 fold; -TΔS [11]: -3.69
YDREFLLGFQF (not fully specified (C-terminus), also called truncated Tr2) [Tr2 peptide (truncated 11mer eIF4G1 peptide)]	5960 nM	4.2 °C	binding enthalpy [5]: -10.9 kcal/mol; Kd [7]: 1040 nM; Kd [12]: 1010 nM; -TΔS [11]: -2.91
YDREFLLAFQF-NH2 (not fully specified) [Tr2_AIB3_ALA]	2550 nM	5.6 °C	–
ADREFLLGFQF (not fully specified (C-terminus)) [11mer (control) peptide with the conserved tyrosine mutated to alanine]	–	–	binding result [4]: no binding (tested: 200 µM); ΔT (°C) [4]: 0.65 °C
YGRKKRRQRRRGTKKRYDREFLLGFQF (also called eIF4G1 TAT fused peptide) [TAT_eIF4G1 peptide]	–	–	fold lower Kd than the shorter parent peptide (eIF4G1) [5]: ~2.7 fold; Kd [13]: 56.2 nM; ΔH [14]: -5.52; ΔS [15]: 15 Cal mol-1K-1
YDREFLLXFQX (position 631 (printed '5') = 1-amino cyclopentanoic acid; position 634 (printed '*') = Cα-Me-L-Phenylalanine; C-terminal amide (-NH2)) [Tr2_me5_3]	2400 nM	5.8 °C	–
Y[Aib]REFLLGFQF (not fully specified (C-terminus)) [Tr2_AIB1 peptide]	29800 nM	1.32 °C	–
YDR[Aib]FLLGFQF (not fully specified (C-terminus)) [Tr2_AIB2 peptide]	–	–	binding result [10]: no binding (tested: 100 µM)
YDREFLLGF[Aib]F (not fully specified (C-terminus)) [Tr2_AIB4 peptide]	25100 nM	1.52 °C	–
YDREFLLXFQF (position 631 (printed '3') = 1-amino cyclopropanoic acid; C-terminal amide (-NH2)) [Tr2_AIB3_A3C]	2500 nM	5.67 °C	–
YGRKKRRQRRRGTKKRYDRE[αMeF]LL[Ac5c]FQF [TAT_eIF4G1_me5 peptide (YGRKKRRQRRRGTKKRYDRE*LL5FQF)]	–	–	Kd [13]: 10.2 nM; thermal shift in the Tm of eIF4E greater than that of the TAT_eIF4G1 peptide [6]: ~0.82 ° C.; ΔH [14]: -12.4; ΔS [15]: -5.69 Cal mol-1K-1
YDREFLLXFQF (not fully specified; G631 replaced with aminoisobutyric acid (Aib)) [Tr2_AIB3 peptide]	3050 nM	5.42 °C	–
YDREALL[Ac5c]FQF (not fully specified (C-terminus), 29=625, 30=626, 31=627, 34=633)) [Tr2_ALA_A5C4 (Tr2_AIB3_A5C with F628 replaced with alanine)]	8090 nM	3.72 °C	–
YDAEFLL[Ac5c]FQF (not fully specified (C-terminus)) [Tr2_ALA_A5C2 (Tr2_AIB3_A5C with R626 replaced with alanine)]	14300 nM	2.69 °C	–
YDRAFLL[Ac5c]FQF (not fully specified (C-terminus)) [Tr2_ALA_A5C3 (Tr2_AIB3_A5C with alanine at position 627)]	1220 nM	4.22 °C	–
YDREFLL[Ac5c]FAF (not fully specified (C-terminus)) [Tr2_ALA_A5C6 (Tr2_AIB3_A5C with alanine at position 633)]	1370 nM	6.72 °C	–
YDREFLL[Ac5c]FQA (not fully specified (C-terminus)) [Tr2_ALA_A5C7 (Tr2_AIB3_A5C with F634 replaced with alanine)]	2900 nM	5.48 °C	–
YAREFLL[Ac5c]FQF (not fully specified (C-terminus)) [Tr2_ALA_A5C1 (Tr2_AIB3_A5C with alanine at position 625)]	760 nM	5.02 °C	–
YDREFLL[Ac5c]AQF (not fully specified (C-terminus)) [Tr2_ALA_A5C5 (Tr2_AIB3_A5C with F632 replaced with alanine)]	8400 nM	3.65 °C	–
KKRYDREFLL-NH2 [Tr1]	–	–	Kd [3]: 50200 nM; ΔT (°C) [4]: 1.7 °C
YDREFLLXFQF (position 631 (printed '4') = 1-amino cyclobutanoic acid; C-terminal amide (-NH2)) [Tr2_AIB3_A4C]	2350 nM	5.8 °C	–
YDREXLLXFQF (not fully specified; Cα-methyl-L-phenylalanine at position 628; 1-aminocyclopentanecarboxylic acid (A5C) at position 631, also called truncated modified Tr2_me5-1 peptide) [Tr2_me5-1 peptide (YDRE*LL5FQF)]	360 nM	8.8 °C	binding enthalpy [5]: -16.1 kcal/mol; Kd [7]: 146 nM; -TΔS [11]: -6.89
YGRKKRRQRRR (also called TAT tag) [TAT peptide (YGRKKRRQRRR)]	–	–	binding result [16]: no binding
